# Assay results taken from the supplement of paper PMC7877785.
# ± gives the uncertainty stated by the source.
# Test: self-splicing fitness, log relative to wild type (ln ratio); higher = more splicing; Tetrahymena group I intron in knt gene, E. coli kanamycin selection, DiMSum; sequences stand for … in CUCUCU…GGAGGGAAAAGUUAUCAGGCAUGCACCUGGUAGCUAGUCUUUAAACCAAUAGAUUGCAUCGGUUUAAAAGGCAAGACCGUCAAAUUGCGGGAAAGGGGUCAACAGCCGUUCAGUACCAAGUCUCAGGGGAAACUUUGAGAUGGCCUUGCAAAGGGUAUGGUAAUAAGCUGACGGACAUGGUCCUAACCACGCAGCCAAGUCCUAAGUCAACAGAUCUUCUGUUGAUAUGGAUGCAGUUCACAGACUAAAUGUCGGUCGGGGAAGAUGUAUUCUUCUCAUAAGAUAUAGUCGGACCUCUCCUUAAUGGGAGCUAGCGGAUGAAGUGAUGCAACACUGGAGCCGCUGGGAACUAAUUUGUAUGCGAAAGUAUAUUGAUUAGUUUUGGAGUACUCGUGGUCG
# In short: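 Library with all eight P1ex-region intron nucleotides randomised, intron inside the knt kanamycin-resistance gene on pET-22b(+), in E. coli BL21(DE3). Cells grew overnight at 37°C or 30°C on LB agar with or without 25 μg/mL kanamycin (plus 100 μg/mL carbenicillin, 50 μM IPTG, 0.2% rhamnose), in six replicate transformations. Pooled colonies were amplicon-sequenced on Illumina HiSeq 2500. DiMSum fitness is the error-weighted combination of wild-type-normalised replicate fold changes, kanamycin versus none.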
Sequence,self-splicing fitness (ln) (30 °C),self-splicing fitness (ln) (37 °C)
UAUGAGCAAUAUUACGUAAU,-2.35 ± 0.17,-2.34 ± 0.35
AGUAAGCAAUAUUACGCUAG,-2.83 ± 0.24,-2.39 ± 0.23
CUCGAGCAAUAUUACGUAGU,-3.91 ± 0.26,-2.18 ± 0.21
UCGCAGCAAUAUUACGUGGG,-4.4 ± 0.36,-2.53 ± 0.14
CCGAAGCAAUAUUACGAUCC,-3.91 ± 0.46,-2.46 ± 0.45
AGUUAGCAAUAUUACGGUGG,-1.16 ± 0.18,-2.42 ± 0.27
UCUUAGCAAUAUUACGAGUG,-0.964 ± 0.065,-0.162 ± 0.097
GGCAAGCAAUAUUACGGUAC,-0.729 ± 0.072,-0.752 ± 0.09
GAAGAGCAAUAUUACGAUUC,-3.57 ± 0.26,-2.45 ± 0.28
GAUCAGCAAUAUUACGGCCU,-1.13 ± 0.22,-1.18 ± 0.23
CGCAAGCAAUAUUACGCGUC,-3.7 ± 0.37,-3.31 ± 0.35
ACGAAGCAAUAUUACGCCUA,-1.93 ± 0.15,-1.1 ± 0.12
GACCAGCAAUAUUACGCGAU,-2.28 ± 0.11,-1.17 ± 0.093
ACAGAGCAAUAUUACGGAAC,–,-1.97 ± 0.36
ACGCAGCAAUAUUACGAGAG,-3.3 ± 0.11,-1.78 ± 0.1
CUUCAGCAAUAUUACGCGCU,–,-1.96 ± 0.46
ACGUAGCAAUAUUACGCGUC,-1.53 ± 0.22,-1.97 ± 0.35
CAGAAGCAAUAUUACGAAAC,-4.4 ± 0.46,-2.18 ± 0.32
ACGAAGCAAUAUUACGUUAU,-3.54 ± 0.13,-1.1 ± 0.1
UCGGAGCAAUAUUACGGCAU,-2.73 ± 0.21,-1.97 ± 0.37
GUCCAGCAAUAUUACGGCGC,-0.166 ± 0.15,0.208 ± 0.22
GCAGAGCAAUAUUACGGAUC,-2.59 ± 0.34,-1.6 ± 0.29
AACUAGCAAUAUUACGGUGA,-1.58 ± 0.073,-0.833 ± 0.099
UUAGAGCAAUAUUACGACAA,0.166 ± 0.062,0.493 ± 0.09
UAUUAGCAAUAUUACGCUGU,-2.57 ± 0.23,0.0696 ± 0.22
AUAUAGCAAUAUUACGGGCC,-2.81 ± 0.3,-2.86 ± 0.43

Sequence,self-splicing fitness (ln) (30 °C),self-splicing fitness (ln) (37 °C)
AAAGAGCAAUAUUACGCCAC,-3.45 ± 0.49,-2.83 ± 0.47
AGUAAGCAAUAUUACGAACG,-0.785 ± 0.14,-0.209 ± 0.18
GGAGAGCAAUAUUACGAUAG,–,-1.94 ± 0.28
UUGCAGCAAUAUUACGGAGU,-4.51 ± 0.42,-2.44 ± 0.2
GGGGAGCAAUAUUACGAUUA,-2.23 ± 0.23,-1.58 ± 0.22
GUGAAGCAAUAUUACGUUGG,-2.81 ± 0.13,-1.65 ± 0.12
GACAAGCAAUAUUACGACUG,-0.381 ± 0.056,-0.0494 ± 0.092
GAAUAGCAAUAUUACGACAA,-0.386 ± 0.13,-0.329 ± 0.13
AAAUAGCAAUAUUACGAGUC,-3.89 ± 0.33,-2.2 ± 0.36
UACUAGCAAUAUUACGGAUC,-2.66 ± 0.19,-1.7 ± 0.24
CGUUAGCAAUAUUACGUCCU,-1.24 ± 0.1,-0.9 ± 0.15
CUUUAGCAAUAUUACGUACA,-2.89 ± 0.22,–
CCCCAGCAAUAUUACGGCAC,-4.46 ± 0.42,-2.55 ± 0.29
CCUCAGCAAUAUUACGAAGC,-2.92 ± 0.15,-2.44 ± 0.25
CGUCAGCAAUAUUACGCACU,-0.336 ± 0.071,0.339 ± 0.079
CGAUAGCAAUAUUACGGCCA,-1.22 ± 0.12,-0.957 ± 0.15
CUUGAGCAAUAUUACGUACG,-1.44 ± 0.097,-0.683 ± 0.1
CGGAAGCAAUAUUACGUUCU,-1.91 ± 0.14,-0.77 ± 0.14
CUCAAGCAAUAUUACGAUUG,-3.85 ± 0.18,-2.5 ± 0.17
GCUGAGCAAUAUUACGAUAA,-3.51 ± 0.4,-3.27 ± 0.35
GGUCAGCAAUAUUACGAACU,-0.446 ± 0.25,-1.74 ± 0.21
CAAAAGCAAUAUUACGCCUC,-3.57 ± 0.29,-1.76 ± 0.25
CGAAAGCAAUAUUACGCGCG,-2.64 ± 0.16,-1.34 ± 0.17
AGCUAGCAAUAUUACGUCAC,–,-2.69 ± 0.29
CCUUAGCAAUAUUACGCAUU,-4.02 ± 0.46,–
CUACAGCAAUAUUACGCGCG,-1.36 ± 0.082,-0.796 ± 0.11

Sequence,self-splicing fitness (ln) (30 °C),self-splicing fitness (ln) (37 °C)
GUUUAGCAAUAUUACGGCUU,-1.08 ± 0.13,-0.894 ± 0.12
AACGAGCAAUAUUACGCUAC,–,-1.86 ± 0.31
AAGCAGCAAUAUUACGAGGU,-3.55 ± 0.16,-2.65 ± 0.19
GGUUAGCAAUAUUACGUUAC,-2.81 ± 0.19,-1.47 ± 0.23
CGAUAGCAAUAUUACGGCAC,-2.47 ± 0.33,-1.49 ± 0.31
GUUGAGCAAUAUUACGGAGC,-1.01 ± 0.2,-2.82 ± 0.3
GAAAAGCAAUAUUACGAUUC,-2.34 ± 0.17,-1.42 ± 0.15
CAAGAGCAAUAUUACGGUCA,-2.4 ± 0.19,-2.45 ± 0.23
CCUGAGCAAUAUUACGUCGA,-3.41 ± 0.42,-3.34 ± 0.33
GGUAAGCAAUAUUACGACCA,-1.47 ± 0.17,-0.643 ± 0.21
CAAGAGCAAUAUUACGCGUG,-4.13 ± 0.3,-1.6 ± 0.16
UUGGAGCAAUAUUACGAGAU,-2.83 ± 0.29,-2.36 ± 0.36
AAGGAGCAAUAUUACGGUGG,-3.21 ± 0.15,-2.45 ± 0.27
AAUAAGCAAUAUUACGUUCA,-0.963 ± 0.084,-0.348 ± 0.12
GGACAGCAAUAUUACGUGGU,-2.9 ± 0.12,-1.08 ± 0.11
GAGGAGCAAUAUUACGUGAG,-3.37 ± 0.4,-2.22 ± 0.26
AAAUAGCAAUAUUACGGUGA,-1.69 ± 0.13,-0.521 ± 0.11
AUCCAGCAAUAUUACGAAUC,-2.04 ± 0.15,-1.87 ± 0.22
AACGAGCAAUAUUACGUUCA,-2.32 ± 0.17,-1.87 ± 0.23
CGUCAGCAAUAUUACGUACA,-0.533 ± 0.072,0.154 ± 0.087
UAGAAGCAAUAUUACGACGG,-0.626 ± 0.095,0.0889 ± 0.14
AAUUAGCAAUAUUACGUGCC,-1.48 ± 0.082,-0.857 ± 0.11
ACGGAGCAAUAUUACGGACU,-2.21 ± 0.15,-1.84 ± 0.16
AGGAAGCAAUAUUACGACUU,0.00163 ± 0.064,-0.239 ± 0.084
CAGUAGCAAUAUUACGUGUA,-4.62 ± 0.34,-2.55 ± 0.19
